# B1: 5–7 (antibody, V domains shown)
# VH: QVQLVQSGAEVKKPGASVKVSCKASGYTFTSYYMHWVRQAPGQGLEWMGVINPSGGSTSYAEKFRGRVTMTRDTSTSTVYMELSSLRSEDTAVYYCARDREPHSDSSGYWDSLKYYYYYALDVWGQGTTVTVSS
# VL: AIQLTQSPSSLSASVGDRVTITCRASQGISSYLAWYQQKPGKAPELLIYAASTLQSGVPSRFSGSGSGTDFTLTISSLQPEDFATYYCQQLNTYPFTFGPGTKVDIK
# notes: also called antibody 5-7
# Biological target: WA-1 NTD probe (SARS-CoV-2 WA-1, UniProt P0DTC2, biotin on the AVI tag (…))
# Test: BLI
# Details: both partners purified
binder,measurement,value
B1,binding result,binds

# Reference: PMC9129042 (PLoS ONE, 2022)
